Laboratory results taken from publication PMC10786891, “Massively parallel profiling of RNA-targeting CRISPR-Cas13d”.

Molecular target: T1, EsCas13d, nuclease-dead (Eubacterium siraeum, UniProt B0MS50, R295A;H300A;R849A;H854A)
T1 sequence: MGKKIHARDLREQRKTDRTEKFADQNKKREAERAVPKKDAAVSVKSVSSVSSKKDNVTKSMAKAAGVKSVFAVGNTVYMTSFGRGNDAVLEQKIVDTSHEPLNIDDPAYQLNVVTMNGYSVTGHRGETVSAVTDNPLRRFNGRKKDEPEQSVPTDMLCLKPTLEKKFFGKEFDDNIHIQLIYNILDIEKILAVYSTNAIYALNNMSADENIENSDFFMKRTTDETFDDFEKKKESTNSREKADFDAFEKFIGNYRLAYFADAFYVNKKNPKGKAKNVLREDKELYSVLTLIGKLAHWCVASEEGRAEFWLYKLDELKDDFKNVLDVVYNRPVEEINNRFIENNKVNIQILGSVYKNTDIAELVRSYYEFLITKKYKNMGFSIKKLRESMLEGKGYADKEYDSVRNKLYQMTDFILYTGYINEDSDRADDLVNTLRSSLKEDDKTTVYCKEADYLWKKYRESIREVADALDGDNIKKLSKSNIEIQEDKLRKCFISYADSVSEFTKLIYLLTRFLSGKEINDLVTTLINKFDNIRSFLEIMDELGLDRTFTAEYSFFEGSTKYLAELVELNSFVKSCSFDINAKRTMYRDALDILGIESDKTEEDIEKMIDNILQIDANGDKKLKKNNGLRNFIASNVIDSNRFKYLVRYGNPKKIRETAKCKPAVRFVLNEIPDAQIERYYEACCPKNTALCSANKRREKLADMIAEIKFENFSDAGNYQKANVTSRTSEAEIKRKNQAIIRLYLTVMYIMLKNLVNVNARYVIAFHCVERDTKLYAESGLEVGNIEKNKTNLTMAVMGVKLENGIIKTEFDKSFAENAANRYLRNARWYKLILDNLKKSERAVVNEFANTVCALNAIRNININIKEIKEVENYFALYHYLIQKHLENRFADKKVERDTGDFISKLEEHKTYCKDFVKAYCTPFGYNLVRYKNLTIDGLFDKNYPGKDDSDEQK
Assay: crRNA (strand 1, pre-loaded); Mg2+; 40 mM Tris-HCl pH 7.5, 150 mM NaCl, 6 mM MgCl2, 1 mM DTT, 0.1% Tween-20, 0.2 mg/ml BSA; 25 C; 10 min per concentration, then washed
Conditions: tags: His6-TwinStrep-SUMO cleaved; N-terminal SNAP kept (SNAP-Surface 488); label: 3' end held by stalled T7 RNA polymerase

Binder	Kd
target 1 MT 5'PFS GUC 3'PFS AAU (mixed) RNA 1: CACCCGUGCAAAAAUGCAGGGGUCUAAAACUGAGCGGAUAACCUCUCUAUGG RNA 2: GGGAAUGGAUCCACAUCUACGAAUUCGUCCCAUAGAGAGGUUAUCCGCUCAAAUAGAUCGGAAGAGCACACGU	25.5 ± 6.5 nM
target 1 MT 5'PFS GGA 3'PFS CAC (mixed) RNA 1: CACCCGUGCAAAAAUGCAGGGGUCUAAAACUGAGCGGAUAACCUCUCUAUGG RNA 2: GGGAAUGGAUCCACAUCUACGAAUUCGGACCAUAGAGAGGUUAUCCGCUCACACAGAUCGGAAGAGCACACGU	35.5 ± 15 nM
target 1 MT 5'PFS GGA 3'PFS CAA (mixed) RNA 1: CACCCGUGCAAAAAUGCAGGGGUCUAAAACUGAGCGGAUAACCUCUCUAUGG RNA 2: GGGAAUGGAUCCACAUCUACGAAUUCGGACCAUAGAGAGGUUAUCCGCUCACAAAGAUCGGAAGAGCACACGU	52 ± 16 nM
target 1 MT 5'PFS ACU 3'PFS CUU (mixed) RNA 1: CACCCGUGCAAAAAUGCAGGGGUCUAAAACUGAGCGGAUAACCUCUCUAUGG RNA 2: GGGAAUGGAUCCACAUCUACGAAUUCACUCCAUAGAGAGGUUAUCCGCUCACUUAGAUCGGAAGAGCACACGU	38 ± 13 nM
target 1 MT 5'PFS GGG 3'PFS CUU (mixed) RNA 1: CACCCGUGCAAAAAUGCAGGGGUCUAAAACUGAGCGGAUAACCUCUCUAUGG RNA 2: GGGAAUGGAUCCACAUCUACGAAUUCGGGCCAUAGAGAGGUUAUCCGCUCACUUAGAUCGGAAGAGCACACGU	24.5 ± 9 nM
target 1 MT 5'PFS UGU 3'PFS UCA (mixed) RNA 1: CACCCGUGCAAAAAUGCAGGGGUCUAAAACUGAGCGGAUAACCUCUCUAUGG RNA 2: GGGAAUGGAUCCACAUCUACGAAUUCUGUCCAUAGAGAGGUUAUCCGCUCAUCAAGAUCGGAAGAGCACACGU	47.5 ± 13 nM
target 1 MT 5'PFS UCC 3'PFS AUA (mixed) RNA 1: CACCCGUGCAAAAAUGCAGGGGUCUAAAACUGAGCGGAUAACCUCUCUAUGG RNA 2: GGGAAUGGAUCCACAUCUACGAAUUCUCCCCAUAGAGAGGUUAUCCGCUCAAUAAGAUCGGAAGAGCACACGU	13.7 ± 5.05 nM
target 1 MT 5'PFS GGA 3'PFS ACA (mixed) RNA 1: CACCCGUGCAAAAAUGCAGGGGUCUAAAACUGAGCGGAUAACCUCUCUAUGG RNA 2: GGGAAUGGAUCCACAUCUACGAAUUCGGACCAUAGAGAGGUUAUCCGCUCAACAAGAUCGGAAGAGCACACGU	27 ± 5 nM
target 1 MT 5'PFS GGA 3'PFS ACU (mixed) RNA 1: CACCCGUGCAAAAAUGCAGGGGUCUAAAACUGAGCGGAUAACCUCUCUAUGG RNA 2: GGGAAUGGAUCCACAUCUACGAAUUCGGACCAUAGAGAGGUUAUCCGCUCAACUAGAUCGGAAGAGCACACGU	15.8 ± 2.95 nM
target 1 MT 5'PFS CAA 3'PFS UUA (mixed) RNA 1: CACCCGUGCAAAAAUGCAGGGGUCUAAAACUGAGCGGAUAACCUCUCUAUGG RNA 2: GGGAAUGGAUCCACAUCUACGAAUUCCAACCAUAGAGAGGUUAUCCGCUCAUUAAGAUCGGAAGAGCACACGU	7.25 ± 2 nM
target 1 MT 5'PFS CUU 3'PFS AUA (mixed) RNA 1: CACCCGUGCAAAAAUGCAGGGGUCUAAAACUGAGCGGAUAACCUCUCUAUGG RNA 2: GGGAAUGGAUCCACAUCUACGAAUUCCUUCCAUAGAGAGGUUAUCCGCUCAAUAAGAUCGGAAGAGCACACGU	~50.5 nM
target 1 MT 5'PFS CUC 3'PFS UUG (mixed) RNA 1: CACCCGUGCAAAAAUGCAGGGGUCUAAAACUGAGCGGAUAACCUCUCUAUGG RNA 2: GGGAAUGGAUCCACAUCUACGAAUUCCUCCCAUAGAGAGGUUAUCCGCUCAUUGAGAUCGGAAGAGCACACGU	~105 nM
target 1 insC 3' of 11,insA 3' of 11 (mixed) RNA 1: CACCCGUGCAAAAAUGCAGGGGUCUAAAACUGAGCGGAUAACCUCUCUAUGG RNA 2: GGGAAUGGAUCCACAUCUACGAAUUCGUACCAUAGAGAGGUCAUAUCCGCUCACCGAGAUCGGAAGAGCACACGU	21.4 ± 1 nM
target 1 MT 5'PFS CAU 3'PFS AUA (mixed) RNA 1: CACCCGUGCAAAAAUGCAGGGGUCUAAAACUGAGCGGAUAACCUCUCUAUGG RNA 2: GGGAAUGGAUCCACAUCUACGAAUUCCAUCCAUAGAGAGGUUAUCCGCUCAAUAAGAUCGGAAGAGCACACGU	~70 nM
target 1 MT 5'PFS ACU 3'PFS CUA (mixed) RNA 1: CACCCGUGCAAAAAUGCAGGGGUCUAAAACUGAGCGGAUAACCUCUCUAUGG RNA 2: GGGAAUGGAUCCACAUCUACGAAUUCACUCCAUAGAGAGGUUAUCCGCUCACUAAGAUCGGAAGAGCACACGU	~34.5 nM
target 1 MT 5'PFS UGU 3'PFS UCU (mixed) RNA 1: CACCCGUGCAAAAAUGCAGGGGUCUAAAACUGAGCGGAUAACCUCUCUAUGG RNA 2: GGGAAUGGAUCCACAUCUACGAAUUCUGUCCAUAGAGAGGUUAUCCGCUCAUCUAGAUCGGAAGAGCACACGU	28.5 ± 6.5 nM
target 1 MT 5'PFS AGG 3'PFS CGA (mixed) RNA 1: CACCCGUGCAAAAAUGCAGGGGUCUAAAACUGAGCGGAUAACCUCUCUAUGG RNA 2: GGGAAUGGAUCCACAUCUACGAAUUCAGGCCAUAGAGAGGUUAUCCGCUCACGAAGAUCGGAAGAGCACACGU	~73 nM
target 1 MT 5'PFS UCC 3'PFS AUC (mixed) RNA 1: CACCCGUGCAAAAAUGCAGGGGUCUAAAACUGAGCGGAUAACCUCUCUAUGG RNA 2: GGGAAUGGAUCCACAUCUACGAAUUCUCCCCAUAGAGAGGUUAUCCGCUCAAUCAGAUCGGAAGAGCACACGU	43.5 ± 17.5 nM
target 1 MT 5'PFS UGU 3'PFS UCC (mixed) RNA 1: CACCCGUGCAAAAAUGCAGGGGUCUAAAACUGAGCGGAUAACCUCUCUAUGG RNA 2: GGGAAUGGAUCCACAUCUACGAAUUCUGUCCAUAGAGAGGUUAUCCGCUCAUCCAGAUCGGAAGAGCACACGU	39 ± 10.5 nM
target 1 MT 5'PFS GGA 3'PFS CAG (mixed) RNA 1: CACCCGUGCAAAAAUGCAGGGGUCUAAAACUGAGCGGAUAACCUCUCUAUGG RNA 2: GGGAAUGGAUCCACAUCUACGAAUUCGGACCAUAGAGAGGUUAUCCGCUCACAGAGAUCGGAAGAGCACACGU	24.5 ± 5 nM
target 1 MT 5'PFS UUG 3'PFS UAG (mixed) RNA 1: CACCCGUGCAAAAAUGCAGGGGUCUAAAACUGAGCGGAUAACCUCUCUAUGG RNA 2: GGGAAUGGAUCCACAUCUACGAAUUCUUGCCAUAGAGAGGUUAUCCGCUCAUAGAGAUCGGAAGAGCACACGU	47.5 ± 10.5 nM
target 1 MT 5'PFS UCC 3'PFS AUG (mixed) RNA 1: CACCCGUGCAAAAAUGCAGGGGUCUAAAACUGAGCGGAUAACCUCUCUAUGG RNA 2: GGGAAUGGAUCCACAUCUACGAAUUCUCCCCAUAGAGAGGUUAUCCGCUCAAUGAGAUCGGAAGAGCACACGU	39 ± 17 nM
target 1 MT 5'PFS GGA 3'PFS ACC (mixed) RNA 1: CACCCGUGCAAAAAUGCAGGGGUCUAAAACUGAGCGGAUAACCUCUCUAUGG RNA 2: GGGAAUGGAUCCACAUCUACGAAUUCGGACCAUAGAGAGGUUAUCCGCUCAACCAGAUCGGAAGAGCACACGU	27.3 ± 7.15 nM
target 1 MT 5'PFS UUG 3'PFS UAC (mixed) RNA 1: CACCCGUGCAAAAAUGCAGGGGUCUAAAACUGAGCGGAUAACCUCUCUAUGG RNA 2: GGGAAUGGAUCCACAUCUACGAAUUCUUGCCAUAGAGAGGUUAUCCGCUCAUACAGAUCGGAAGAGCACACGU	42.5 ± 13.5 nM
target 1 MT 5'PFS CUC 3'PFS CCU (mixed) RNA 1: CACCCGUGCAAAAAUGCAGGGGUCUAAAACUGAGCGGAUAACCUCUCUAUGG RNA 2: GGGAAUGGAUCCACAUCUACGAAUUCCUCCCAUAGAGAGGUUAUCCGCUCACCUAGAUCGGAAGAGCACACGU	~40 nM
target 1 MT 5'PFS UGU 3'PFS UCG (mixed) RNA 1: CACCCGUGCAAAAAUGCAGGGGUCUAAAACUGAGCGGAUAACCUCUCUAUGG RNA 2: GGGAAUGGAUCCACAUCUACGAAUUCUGUCCAUAGAGAGGUUAUCCGCUCAUCGAGAUCGGAAGAGCACACGU	61 ± 20.5 nM
target 1 insU 3' of 17,insU 3' of 12 (mixed) RNA 1: CACCCGUGCAAAAAUGCAGGGGUCUAAAACUGAGCGGAUAACCUCUCUAUGG RNA 2: GGGAAUGGAUCCACAUCUACGAAUUCGUACCAUAGUAGAGGUUUAUCCGCUCACCGAGAUCGGAAGAGCACACGU	16.4 ± 3.2 nM
target 1 MT 5'PFS GGA 3'PFS ACG (mixed) RNA 1: CACCCGUGCAAAAAUGCAGGGGUCUAAAACUGAGCGGAUAACCUCUCUAUGG RNA 2: GGGAAUGGAUCCACAUCUACGAAUUCGGACCAUAGAGAGGUUAUCCGCUCAACGAGAUCGGAAGAGCACACGU	20.5 ± 4 nM
